Experimental findings from patent US6218168A, “Process for preparing O-acetylserine, L-cysteine and L-cysteine-related products” (Consortium fur elektrochemische Inudstrie GmbH, priority 1995, dated 2001) are described below.

The Ki is a measure of affinity in units of concentration, obtained from inhibition or displacement.

One assay concerns production strain JM15. The assay can be described thus: Cysteine production in 1 L fermenter, JM15 with plasmid-encoded cysE alleles. Format: cell-based, E. coli. The settings on record: 48 h, JM15 transformed with plasmid. On the procedure: Influence of different, plasmid-encoded cysE alleles on the production of L-cysteine or products derived from L-cysteine in a 1 L fermenter using the host strain JM15 20 mL of LB medium (1% tryptone, 0.5% yeast extract, 0.5% NaCl) contained in a 100 mL Erlenmeyer flask were inoculated with a single colony of the production strain JM15 (CGSC#5042) which had been transformed with the respective cysE plasmid.
After having been incubated for 7 hours in a bacterial shaker (30° C., 150 rpm), the respective preliminary cultures were transferred to 100 mL of SM1 medium. The SM1 medium contained 5 g/L glucose, 5 mg/L vitamin B1, 3 g/l KH2 PO4, 12 g/L K2 HPO4, 0.3 g/L MgSO4×7 H2 O, 0.1 g/L NaCl, 5 g/L (NH4)2 SO4, 14.7 mg/L CaCl2×2 H2 O, 2 mg/L FeSO4×2 H2 O, 1 g/L Na3 citrate×2 H2 O, 1 ml/L trace element solution and 25 mg/L tetracycline. The trace element solution was composed of 0.15 g/L Na2 MoO4×2 H2 O, 2.5 g/L H3 BO3, 0.7 g/L CoCl2×6 H2 O, 0.25 g/L CuSO4×5 H2 O, 1.6 g/L MnCl2×4 H2 O and 0.3 g/L ZnSO4×7 H2 O. The cultures were shaken in 1 L Erlenmeyer flasks at 30° C. and at 150 rpm for 17 h. After this incubation, the OD600 was between 4 and 5. The subsequent fermentation was carried out in Braun-Melsungen BIOSTAT M research fermenters. A culturing vessel having a total volume of 2 L was used.
The fermentation medium contained 15 g/L glucose, 5 g/L NaCl, 0.3 g/L MgSO4×7 H2 O, 15 mg/L CaCl2×2 H2 O, 75 mg/L FeSO4×7 H2 O, 1 g/L Na3 citrate×2 H2 O, 1.5 g/L KH2 PO4, 1 mL of trace element solution (see above), 5 mg/L vitamin B1, 2.5 g/L yeast extract (Difco), 2.5 g/L tryptone (Difco) and 25 mg/L tetracycline.
The glucose concentration in the fermenter was initially adjusted to a value of 15 g/L by pumping in a 700 g/L (w/v) (sterilized) glucose solution, and the pH was adjusted to 7.0 by pumping in a 25% NH4 OH solution. After an OD600 of 10 had been reached, 300 mg per hour were supplied from a sterile 100 g/L (w/v) stock solution of thiosulfate. 100 mL of preliminary culture were pumped into the fermenter vessel for the inoculation. The starting volume was approximately 1 L. The cultures were initially stirred at 400 rpm and aerated with 1.5 vvm of compressed air which had been sterilized by passing through a sterile filter. The fermentation was carried out at a temperature of 30° C.
The pH was maintained at a value of 7.0 by means of automatic correction with 25% NH4 OH. The oxygen saturation in the fermentation broth had at no time during the fermentation to fall below 20%; the stirring speed was used to ensure this. The glucose content of the nutrient solution, the optical density and the cysteine content were determined at two- to three-hourly intervals. The glucose content was determined enzymically using a glucose analyzer from YSI. The concentration of the glucose was adjusted to between 10 and 20 g/L by means of continuously feeding in this compound.
The content of cysteine in the medium was determined […] from the cell-free super-natant of the sample using the method of Gaitonde, M. K. (1967), Biochem. J. 104, 627-633.
The fermentation was terminated after 44-50 h.

In a further assay the target is serine acetyltransferase. Kind of assay: Serine acetyltransferase enzyme activity test with and without L-cysteine (inhibitor constant Ki, specific activity). Format: biochemical, E. coli. The settings on record: for Ki: inhibitor L-cysteine. From the text: Any method which enables the activity of the serine acetyltransferase to be determined in the presence of cysteine can be used for determining the cysteine sensitivity of this enzyme. For example, the serine acetyltransferase activity can be determined using the method described by Kredich and Tomkins, J. Biol. Chem. 241: 4955-4965 (1966). In this test, the enzyme test mixture contains the substrate, L-serine, and the cofactor, acetyl-coenzyme A. The reaction is started by adding enzyme and monitored, in a spectro photometer, by observing the decrease in absorption at 232 nm which is elicited by the cleavage of the thioester bond in the acetyl-coenzyme A.
The above-described enzyme test is suitable for determining the cysteine sensitivity of any serine acetyltransferase enzyme, including the enzymes which have a modified carboxyl terminus. Inhibition of the serine acetyltransferase activity is tested in the presence of differing concentrations of L-cysteine in the reaction mixture. The catalytic activity of the different serine acetyltransferase enzymes is determined in the presence and absence of L-cysteine, and the inhibitor constant, Ki, is ascertained from this (Kredich and Tomkins, J. Biol. Chem., 241, 4955-4965 (1966)).
In order to investigate the biochemical basis of the cysteine secretion of the revertants, the activity of the serine acetyltransferase was determined in vitro, and the ability of cysteine to inhibit the enzyme was measured. For the determination, use was made of S30 extracts (cell homogenates centrifuged at 30,000 g and 4° C. for 20 minutes) of the selected revertants, the starting strains and the comparison strain, E. coli W3110 (ATTC 27325).
The biochemical parameters such as enzyme activity and inhibitor constant, Ki, were determined in an analogous manner to that described in Example 1.
The plasmids resulting from this cloning were designated pACYC184/cysE-Del in accordance with the extent of their deletion (cf. FIG. 9 for the plasmid map). Determination of the enzymic activity and the inhibitor constant, Ki, and also the cross-feeding test, were carried out in analogy with the description in Example 1. DNA sequence analysis was used to confirm that the deletions had been correctly introduced.
Determination of the enzymic activity and of the inhibitor constant Ki, and also the cross-feeding test, were carried out in analogy with the description in Example 1.

A further assay has as its system JM15attλ::cysE strains. The assay can be described thus: Cysteine production in 1 L fermenter, chromosomally encoded cysE alleles. Format: cell-based, E. coli. The settings on record: single chromosomal copy. How it is done: For the purpose of being integrated into the chromosomal attachment site (attλ), the cysE alleles cysEIV, cysEX and cysEXI were cloned into the plasmid pRS551 (Simons et al., 1987, Gene 53: 85-96). For this, each cysE allele was amplified by PCR from the corresponding cysE plasmid. The oligonucleotides which were used, i.e. cysE-fwl and cysE-revl, are described in Example 1. The amplification was carried out as described in Example 3. The resulting fragments were cleaved with EcoRI/BamHI, purified through an agarose gel and ligated into vector pRS551 which had been cleaved with EcoRI and BamHI. This afforded the vector pRS551-based recombinant plasmids pRScysEIV, X and XI.
A heterogeneous lambda lysate, which contained recombinant cysE allele-carrying λRS45 derivatives in addition to λRS45 phages, was produced in vivo by homologous recombination by means of preparing a plate lysate on a pRScysE-carrying recA^+ strain (e.g. YMC9, ATCC 3397) using the λRS45 phage (Simons et al., 1987, Gene 53: 85-96).
The cysE strain JM15, which was infected with the heterogeneous lambda lysate and subsequently plated on kanamycin-containing (25 mg/L) LB plates, was used for selecting for the recombinant RS45 derivatives. The lysogenic, kanamycin-resistant clones which were obtained were then tested for their ability to grow on minimal medium plates without cysteine. A clone which was in each case cysteine-prototrophic was selected and used for preparing a homogeneous cysE λ lysate (by means of UV induction, Simons et al., 1987, Gene 53: 85-96).
The JM15 stain was infected with these homogeneous cysE λ lysates which were obtained in each case. The resulting JM15attλ::cysE strains were cultured as described in Example 6. Instead of tetracycline, the respective media in each case contained 25 mg of kanamycin per L as the selection agent.

[1] abbreviates: Table 1a, 1 mM L-serine, 0.1 mM acetyl-CoA.
Setting [2] is: Table 1a, serine acetyltransferase activity.
Where [3] appears, read: Table 2, alleles from chemical mutagenesis.
Setting [4] is: Table 4, alleles from site-specific mutagenesis.
Where [5] appears, read: Table 1b, carboxyterminal deletions.

B1: cysEX: mutant Thr167->Ala167 (protein, UniProt P0A9D4 1-273, looked up, variant T167A)
Serine acetyltransferase: MSCEELEIVWNNIKAEARTLADCEPMLASFYHATLLKHENLGSALSYMLANKLSSPIMPAIAIREVVEEAYAADPEMIASAACDIQAVRTRDPAVDKYSTPLLYLKGFHALQAYRIGHWLWNQGRRALAIFLQNQVSVTFQVDIHPAAKIGRGIMLDHATGIVVGEAAVIENDVSILQSVTLGGTGKSGGDRHPKIREGVMIGAGAKILGNIEVGRGAKIGAGSVVLQPVPPHTTAAGVPARIVGKPDSDKPSMDMDQHFNGINHTFEYGDGI
B1 returned a Cysteine yield in the assay with production strain JM15 of 3.4 g/L. The Ki at serine acetyltransferase (setting [1]) and on serine acetyltransferase (setting [3]) was 50 µM each time. This molecule yielded a spec. act. in the assay with serine acetyltransferase (setting [2]) of 0.156 µmol/min/mg. Besides, the yields of cysteine in the assay on JM15attλ::cysE strains turned out to be 1.8 g/L.

B2: cysEV: triple mutant Val237, Ser238, Ile256 (protein, UniProt P0A9D4 1-273, looked up, variant A237V G238S M256I)
Serine acetyltransferase: MSCEELEIVWNNIKAEARTLADCEPMLASFYHATLLKHENLGSALSYMLANKLSSPIMPAIAIREVVEEAYAADPEMIASAACDIQAVRTRDPAVDKYSTPLLYLKGFHALQAYRIGHWLWNQGRRALAIFLQNQVSVTFQVDIHPAAKIGRGIMLDHATGIVVGETAVIENDVSILQSVTLGGTGKSGGDRHPKIREGVMIGAGAKILGNIEVGRGAKIGAGSVVLQPVPPHTTAVSVPARIVGKPDSDKPSMDIDQHFNGINHTFEYGDGI
With B2, in the assay with production strain JM15, the Cysteine yield came out at 1.3 g/L. Besides, the Ki at serine acetyltransferase (setting [1]) and at serine acetyltransferase (setting [4]) was 10 µM in each case. The spec. act. in the assay on serine acetyltransferase (setting [2]) came out at 0.246 µmol/min/mg.

B3: cysEXII: triple mutant Lys97->Gln97, Gly238->Ser238, Phe267->Leu267 (protein, UniProt P0A9D4 1-273, looked up, variant K97Q G238S F267L)
Serine acetyltransferase: MSCEELEIVWNNIKAEARTLADCEPMLASFYHATLLKHENLGSALSYMLANKLSSPIMPAIAIREVVEEAYAADPEMIASAACDIQAVRTRDPAVDQYSTPLLYLKGFHALQAYRIGHWLWNQGRRALAIFLQNQVSVTFQVDIHPAAKIGRGIMLDHATGIVVGETAVIENDVSILQSVTLGGTGKSGGDRHPKIREGVMIGAGAKILGNIEVGRGAKIGAGSVVLQPVPPHTTAASVPARIVGKPDSDKPSMDMDQHFNGINHTLEYGDGI
In the assay on production strain JM15, B3 came in with a Cysteine yield of 1.2 g/L. For the same molecule, the Ki at serine acetyltransferase (setting [1]) and on serine acetyltransferase (setting [3]) was 40 µM in each case. This molecule showed a spec. act. in the assay on serine acetyltransferase (setting [2]) of 0.254 µmol/min/mg.

B4: cysEXXIII: triple mutant Ala167, Val237, Ser238 (protein, UniProt P0A9D4 1-273, looked up, variant T167A A237V G238S)
Serine acetyltransferase: MSCEELEIVWNNIKAEARTLADCEPMLASFYHATLLKHENLGSALSYMLANKLSSPIMPAIAIREVVEEAYAADPEMIASAACDIQAVRTRDPAVDKYSTPLLYLKGFHALQAYRIGHWLWNQGRRALAIFLQNQVSVTFQVDIHPAAKIGRGIMLDHATGIVVGEAAVIENDVSILQSVTLGGTGKSGGDRHPKIREGVMIGAGAKILGNIEVGRGAKIGAGSVVLQPVPPHTTAVSVPARIVGKPDSDKPSMDMDQHFNGINHTFEYGDGI
B4: the Cysteine yield in the assay on production strain JM15 came to 2.7 g/L. The Ki at serine acetyltransferase (setting [1]) and at serine acetyltransferase (setting [4]) was 2300 µM throughout. Also, in the assay on serine acetyltransferase (setting [2]), the spec. act. was determined as 0.085 µmol/min/mg.

B5: cysEVI: double mutant Ser238, Ile256 (protein, UniProt P0A9D4 1-273, looked up, variant G238S M256I)
Serine acetyltransferase: MSCEELEIVWNNIKAEARTLADCEPMLASFYHATLLKHENLGSALSYMLANKLSSPIMPAIAIREVVEEAYAADPEMIASAACDIQAVRTRDPAVDKYSTPLLYLKGFHALQAYRIGHWLWNQGRRALAIFLQNQVSVTFQVDIHPAAKIGRGIMLDHATGIVVGETAVIENDVSILQSVTLGGTGKSGGDRHPKIREGVMIGAGAKILGNIEVGRGAKIGAGSVVLQPVPPHTTAASVPARIVGKPDSDKPSMDIDQHFNGINHTFEYGDGI
In the assay with production strain JM15, B5 yielded a Cysteine yield of 1.4 g/L. Besides, the Ki on serine acetyltransferase (setting [1]) and on serine acetyltransferase (setting [4]) was 10 µM each time. The same molecule displayed a spec. act. in the assay with serine acetyltransferase (setting [2]) of 0.075 µmol/min/mg.

B6: cysE-Del255: carboxyterminal deletion of 18 amino acids, terminal Asp255 (protein, UniProt P0A9D4 1-255, looked up, fragment)
chain: MSCEELEIVWNNIKAEARTLADCEPMLASFYHATLLKHENLGSALSYMLANKLSSPIMPAIAIREVVEEAYAADPEMIASAACDIQAVRTRDPAVDKYSTPLLYLKGFHALQAYRIGHWLWNQGRRALAIFLQNQVSVTFQVDIHPAAKIGRGIMLDHATGIVVGETAVIENDVSILQSVTLGGTGKSGGDRHPKIREGVMIGAGAKILGNIEVGRGAKIGAGSVVLQPVPPHTTAAGVPARIVGKPDSDKPSMD
Take B6: the Cysteine yield in the assay with production strain JM15 was 3.9 g/L. In the assay on serine acetyltransferase (setting [5]), the spec. act. came to 0.624 μmol/min x mg and the affinity, expressed as Ki, was 30 µM. The molecule also displayed a Ki at serine acetyltransferase (Table 6, carboxyterminal deletions) of 30 µM.
